Legend:
[1] = target: T1, His-tagged cynomolgus monkey CD38 (ACRO Biosystems cat # CD8-05223 [sic]) (cynomolgus monkey, UniProt Q5VAN0 43-301); assay: SPR (Carterra LSA), antibody captured by anti-human Fc, His-tagged CD38 injected
T1 construct: Bought His-tagged protein; also called cynomolgus CD38

[2] = target: T2, His-tagged human CD38 (ACRO Biosystems cat #CD8-H5224) (human, UniProt P28907 43-300); assay: as above
T2 construct: Bought His-tagged protein

[3] = target: CD38 on Daudi target cells (UniProt P28907 1-300, limits assumed); assay: cell-based or functional assay

B1: 40769p1.1.H10 (antibody, V domains shown)
VH: EVQLLESGGGLVQPGGSLRLSCAAFGFTFSDYEMNWVRQAPGKGLEWVSSISITGSWTGYADSVKGRFTISRDNSKNTLYLQMNNLRAEDTAVYYCANYKSYYGMDVWGQGTTVTVSS
VL: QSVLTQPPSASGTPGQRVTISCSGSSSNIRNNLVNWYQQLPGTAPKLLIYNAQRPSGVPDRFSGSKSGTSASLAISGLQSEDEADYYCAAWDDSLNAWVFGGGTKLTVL
notes: Human V regions from transgenic chicken, cloned as scFv-Fc; The variable domains can be found in the listing by the CDRs
Kd [1]: 3.08 nM | Kd [2]: 0.02 nM | ADCC EC50 [3]: 0.0207 µg/mL | Lowest Remaining Target % [3]: 54% | Max RLU [3]: 1.94e+06 RLU | PBMC ADCC EC50 [3]: 0.000411 µg/mL
